Assay: label from the status in PepcDB records

Sequence	protein production
MVAARPAERSGDPAAVRVPVPSAWWVLIGGVIGLFASMTLTVEKVRILLDPIYVPSCNVNPIVSCGSVMTTPQASLLGFPNPLLGIAGFTVVVVTGVLAVAKVPLPRWYWIGLAVGILVGVAFVHWLIFQSLYRIGALCPYCMVVWAVIATLLVVVASIVFGPMRENRGSQERVGARLLYQWRWSLATLWFTTVFLLIMVRFWDYWSTLI	failed
MVAGFTVHSGPHHVPHRDMTHHSRPPGHAPRVTILMPVYNGEKYLAAAMESILDQTFRDFILLIIDDGSSDSSLAIARSFGDPRVQVERNPKNLGLVKTLNRGLDLVQTEFVARMDCDDIALPDRLEKQIAFLDENPDIGMCGTAYELFHESLRQTIRPPCRHEEIVYGLLDDNVFLHSSVIVRMEVLNRHGLRYREDYRLAEDYELWARLARYTHIGNLPQVLVRYRSHPENVSNTNKGEQIATRDRVRLEHLESFGLAPAADQKTLHIDLFSLAFQGSPDQLADARRWLEALARAVSTRCGLPLGRLHRDFALLWYSACGRSAHHGLTVLFSYLKSAMAWKGPKSYILKLLFRCLMRDPIPAVTKLEHHHHHH	not failed
MVAVWSAVAALLGVLINNSLSLVIKDYTVQEWRLGIAGYNGAIVGMYWGDSIFSIMGLCLFLVTLLICLLIEFRLRALLIPKQLPILSLPAMVSILVMVFTISLFSFDTNHLLFTGAAEPVLQTYSREVAIILVVSAMAYQYPLATLQTLGISLTGGLVAQWLTGLNLYALVDLWAINLVLAYFSIKTLFLKHARLASLAATFNALLAWIIWYFWFITGLEQLSAPLLIPFIMSSLITLSLYRQYINHNLLQSELWRTFKLMLINRLRAKQCVAITGSGIRKGTLPDYPSGQWLDPKVPITSYTLAEFKASKRCRYLYWKASYDYYQQALTINKNNIDEQLDYLLNHYLSGLFTETVDSLFNTEQHPVYECYGSIKRLYCLDCAKQQAWPPIPLWSQRDLHCQHCSGLLKPQILAADENIDSECYQALQKNMMECGCLLVIGVPTITPVVSMIIENANANKIPIIFIGTIPFGYFVEEKDVQLTGDIAHWLAEINGFINLLHPLKWGCKWKK	failed
MVDADGIYYLGPEGSFTHEAASLFKGKDLKAESTISLVFKRVYERESSIGIVPIENSLEGPVNETLDNLYNYDNIYVIGEIEKKIELVLAARSDNLSQIKRIYSHPHAFNEAREKLKELGFNEYIPVESTSKAAKIVSQDSEAAAICSNFAAKLYNLKVLITISSHNNYTRFIVLSKEMNSNGNKSMILFTVPHKPGALYKVLQVFYEYNINISMIYSRPLKSIPWQYYFYLEYEGGISNREFIEKLVKSTSVLKIKGSFSKLNNDPGF	failed
MVDDIFERGSKGSSDFFTGNVWVKMLVTDENGVFNTQVYDVVFEPGARTHWHSHPGGQILIVTRGKGFYQERGKPARILKKGDVVEIPPNVVHWHGAAPDEELVHIGISTQVHLGPAEWLGSVTEEEYRKATEGK	not failed
MVDINRRGALGSLLAGAGLAALPASAEAAQMGLLPAKPTSGPTWTTGIEGQRKADLGDGTFLNPILTGDRPDPSILKDGADYYMTHSSFDAYPGLLIWHSRDLVNWTPVTTTLKTNVGSIWAPELCKHKGRYYIYLPAKFPGNNTSYVIWADKIEGPWSEPIDLKLPRYIDPGHIVDEAGERWLFLSGGDRIKLAPDGLSTVGKPEHVYDPWRYPDDWDVEGFSPEGPKLMRRGEYFYMITAVGGTAGPPTGHMVIAARAKSLAGPWENHPRNPLVRTTDNAEKWWSRGHATLVEGPTPGDWWTVYHGYENGYYTLGRQTLLAPVTWTADGWFDIGGGDLSQPIKKPKGGKPGPHGMALSDDFSTDKYGVQWNFFDPKPGEQDRIKREGGVLTLKGAGEAPSTGSPLIFVNGDQAYEIECEIEIEPETRAGLILFYDRQLYCGLGFDAKNFVTHQYGIERGRPANPHGAKMLMRLRNNRHIVSFHTSGDGGKTWKRFDRGMEVSGYHHNVRGGFLMLKPGIYAAGKGSARFRGFKYRALP	failed
MVDIVCWAVKNGSAGRNLLLIANASSEDDQFWPFLQGLRYRGFKLFATIPDRTLPDDECLTAGIEDTGSDD	failed

From a protein production outcome set (Wang et al. 2014)
